Biological target: Calmodulin (CaM), chicken, recombinant (chicken, UniProt P62149 2-149)
Assay: circular dichroism titration; various amounts of CaNp added to a fixed amount of CaM; far-UV CD; 100 mM KCl, 2 mM CaCl2, pH 6.5
Details: both partners purified

B1: CaM-binding domain (target peptide) of calcineurin A, residues 391-414 (CaNp) (peptide)
peptide: ARKEVIRNKIRAIGKMARVFSVLR
notes: CaM target domain of the calcineurin catalytic subunit (CaN-A) α-isoform, residue 391-414; 13C,15N-labelled or unlabelled in the NMR samples; also called target peptide of CaN; not shown: CaM with factor Xa cleavage site IEGR (CaM-CaNp hybrid molecule), N-terminal, cleaved
B1 was tested, and the “stoichiometry N” value was 1.
